For one data set, the system named is HIV-1/MN. The experiment in a line: HIV-1 cell free neutralization (syncytia formation). The class given is cell-based. The note with it: anti-peptide sera. An excerpt: FIGS. 7A, 7B and 7C depict anti-peptide sera mediation of HIV-1 cell free neutralization.
Mannose, sialyl and histo-blood group related carbohydrate epitopes (particularly LeY) are found on the major envelope protein of the human immunodeficiency virus (HIV). Consequently, we examined the extent to which the anti-peptide sera could mediate HIV-1 cell free neutralization. We observed that sera from Balb/c and C57B1/6 mice immunized with P1 or P2, neutralized HIV-1/MN at final dilution's up to 1:64 (FIGS. 7a-c). FIG. 7a illustrates the neutralization of HIV-1/MN by anti-P1 and P2 sera from Balb/c mice. Normal human sera (NHS), as well as the anti-P3 sera, were ineffective at blocking syncytia formnation, whereas human α-HIV-1 sera from 4 different infected patients neutralize cell free virus at dilution's up to 1:64. Sera derived from C57B1/6 mice also followed this profile (FIG. 7b). The isolate specificity was further determined by cell free neutralization of the HIV-1/3B isolate (FIG. 7c).

The test system of a further data set is SKME1-28. The experiment in a line: Complement dependent cytotoxicity (CDC). The class given is cell-based, human. An excerpt:
(§1) Anti-carbohydrate antibodies may mediate complement dependent cytotoxicity (CDC) better than cytotoxicity associated with various effector cells. Subsequently, we have initially examined CDC mediation of various sera raised either to peptides or against the multivalent LeY-PAA form. […] We examined the ability of the sera to mediate complement dependent cytotoxicity (CDC) of the SKBR3 and MCF7 human breast adenocarcinoma cell lines, the ovarian tumor cell line OVAR-3 and the human melanoma lines WM793 and SKMEL-28 compared to that of the LeY-PAA generated sera. Positive control antibodies were BR55-2 which mediates CDC of the adenocarcinoma lines, and ME361 which mediates killing of WM793. Negative controls were pre-immune sera, an irrelevant peptide immunogen (C1) and two peptides (G1 and G2) isolated from phage display that are reactive with ME361.

For the next data set, the system named is WM793. The experiment in a line: Complement dependent cytotoxicity (CDC). The class given is cell-based, human.
From the text: as §1

A further data set deals with MCF-7. The experiment in a line: Complement dependent cytotoxicity (CDC). Type of data set: cell-based, human.
From the text: as §1

Another data set relates to OVAR-3. The experiment in a line: Complement dependent cytotoxicity (CDC). Type of data set: cell-based, human.
From the text: as §1

A further data set deals with SKBR3. The experiment in a line: Complement dependent cytotoxicity (CDC). Type of data set: cell-based, human.
From the text: as §1

With “GGIYYRYDIYYRYDIYYRYD (Novel Sequence) [Peptide P3]”, the blocking syncytia formation result in the data set on HIV-1/MN is recorded as “ineffective”. For the same sequence, the averaged percent cytotoxicity with SKME1-28 is reported as 32%; with WM793 it was 28%; with MCF-7, 56%; with OVAR-3 it was 86%; in the data set on SKBR3, 86%.
